Data on nine sequences can be found in the supplement of paper PMC9170038.

Data set [1] deals with MS2 coat protein. The data set is described as follows: apparent KD of MS2 coat protein; designed switch direction (-1 OFF switch, 1 ON switch): -1; higher = weaker reporter binding. To be noted: Eterna round: R98. How it is done:
(§1)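 RNA-MaP: designed FMN/MS2 RNA switches (84 nt design region) are transcribed on-chip within common flanks and titrated with SNAP-549-labelled MS2 coat protein (about 1-3000 nM) in 100 mM Tris pH 7.5, 80 mM KCl, 4 mM MgCl2, without or with 200 uM FMN. Median apparent KD per design; activation ratio = KD,OFF / KD,ON.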

Data set [2] deals with MS2 coat protein. The data set is described as follows: apparent KD of MS2 coat protein; higher = weaker reporter binding. To be noted: Eterna round: R101. How it is done:
as §1

With “AGAUGACAAAGUCAUCUCGCUCUGACAUGAGGAUCACCCAUGUAGGAUAUAUUACUCAAAGAGUAAUAGAAGGACAUGUUUCUG [Ex NG2 #64]”, the entries for the “apparent KD of MS2 coat protein” value in the data set on MS2 coat protein [1] (input ligand: FMN 200 uM) and in the data set with MS2 coat protein [1] (input ligand: none) were 65.5 nM and 36 nM, respectively.

For the sequence “CAGAUAAAAGUGAGGUCGUCGACAUGAGGAUCACCCAUGUACGAGGAUAUGUAAUAUACGGUAUAGCAGAAGGCGUAUGGGUGU [Edrageer]”, the “apparent KD of MS2 coat protein” value in the data set with MS2 coat protein [1] (input ligand: FMN 200 uM) came out at 120 nM; in the data set with MS2 coat protein [1] (input ligand: none), 30.5 nM. For the sequence “GGUACUCAAAGAGUACCAAUACGAACAUGAGGAUCACCCAUGUAGGAUAUGCUACUCAAAGAGUAGCAGAAGGACAUGUGCCUA [OmeiMod 7 - Jieux - Exclusion NG 3]”, the “apparent KD of MS2 coat protein” value with MS2 coat protein [1] (input ligand: FMN 200 uM) was found to be 422 nM; in the data set with MS2 coat protein [1] (input ligand: none), 38.7 nM. Take “GUCACGAAUGUAGGAUAUCGAGUGGAUAACACUCGAGAAGGACAUGAGGAUCACCCAUGUCAAAUGAAAGAUAAUAAACGUGAC [Exclsuion NG 1/3-B2]”: the “apparent KD of MS2 coat protein” value in the data set on MS2 coat protein [1] (input ligand: FMN 200 uM) is 20.6 nM; with MS2 coat protein [1] (input ligand: none), 15.8 nM. “GUCCCUACAUGAGGAUCACCCAUGUGGGCAGUAAGAAGCCCACAGGAUAUGCGAAGGAGGACAUAGCAGAAGGGUGGUGUUUAG [Reaninveri] (puzzle (switch architecture): Same State NG 3)”: the results for the “apparent KD of MS2 coat protein” value with MS2 coat protein [2] (input ligand: FMN 200 uM) and in the data set on MS2 coat protein [2] (input ligand: none) were 138 nM and 625 nM, respectively.

In the case of “GUCCCUACAUGAGGAUCACCCAUGUGGGCGGUAAGGAGCCCACAGGAUAUGCGAAGGAGGACAUAGCAGAAGGGUGGUGUUCAG [Erenerbe] (puzzle (switch architecture): Same State NG 3)”, the “apparent KD of MS2 coat protein” value in the data set with MS2 coat protein [2] (input ligand: FMN 200 uM) came out at 33.5 nM; with MS2 coat protein [2] (input ligand: none), 308 nM. Consider “GUUAUCUCAUGUUCGACGGACAUGAGGAUCACCCAUGUACCUUAGGAUAUUGAUGAAAUAUGGCGCAAGAAGGAAGGUAACGCU [EternaBot964] (puzzle (switch architecture): Exclusion NG 3)”, for which the “apparent KD of MS2 coat protein” value in the data set with MS2 coat protein [2] (input ligand: FMN 200 uM) is 7.51 nM. For “UAUAUAUAGGCAGGAUAUACAUGUAUAUAUAAUUUAUUAUAUAUUAUUACAUGAGGAUCACCCAUGUAGAAGGGCCAUAUUAUA [LRO037_Exclusion NG 2]”, the results for the “apparent KD of MS2 coat protein” value with MS2 coat protein [1] (input ligand: FMN 200 uM) and in the data set on MS2 coat protein [1] (input ligand: none) were 51.2 nM and 30.1 nM, respectively.

With “UUGCUCAAUUGGGCAGGGACCUCACAUGAGGAUCACCCAUGUCAGGAUAUCCUAGUUUGGACGUAGGAGAAGGGACGGAGUAUC [Usanat]”, the results for the “apparent KD of MS2 coat protein” value in the data set on MS2 coat protein [1] (input ligand: FMN 200 uM) and in the data set on MS2 coat protein [1] (input ligand: none) were 250 nM and 167 nM, respectively.
